From patent publication US20090175847A1

Legend:
[1] = molecular target: Aβ(1-42) globulomer (human) (UniProt P05067); assay: dot blot densitometry; antigen: Aβ(1-42) globulomer
Aβ(1-42) fibrils (human) = Aβ(1-42) fibrils (human) (UniProt P05067); assay: dot blot densitometry; antigen: Aβ(1-42) fibril; the dot is read as a thousands separator
Aβ(1-42) monomer (human) = assay: dot blot densitometry; antigen: Aβ(1-42) monomer, 0.1% NH4OH; the dot is read as a thousands separator (no dot in column 1 of panel A)
Chain of Aβ(1-42) monomer (human) (peptide, as listed by the source): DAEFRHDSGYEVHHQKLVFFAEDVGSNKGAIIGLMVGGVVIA

[2] = molecular target: Aβ(20-42) globulomer (human); assay: dot blot densitometry; antigen: Aβ(20-42) globulomer (the reference of the ratio)
Chain of Aβ(20-42) globulomer (human) (peptide, as listed by the source): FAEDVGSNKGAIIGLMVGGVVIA

Aβ(1-40) monomer (human) = assay: dot blot densitometry; antigen: Aβ(1-40) monomer, 0.1% NH4OH; the dot is read as a thousands separator
Chain of Aβ(1-40) monomer (human) (peptide, as listed by the source): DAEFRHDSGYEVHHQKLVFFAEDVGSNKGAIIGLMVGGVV

- relation between recognition of Aβ(20-42) globulomer and the respective Aβ form [1]: 17
- relation between recognition of Aβ(20-42) globulomer and the respective Aβ form (Aβ(1-42) fibrils (human)): > 10000
- relation between recognition of Aβ(20-42) globulomer and the respective Aβ form (Aβ(1-42) monomer (human)): 10400
- relation between recognition of Aβ(20-42) globulomer and the respective Aβ form [2]: 1
- relation between recognition of Aβ(20-42) globulomer and the respective Aβ form (Aβ(1-40) monomer (human)): > 10000
B1: humanized antibody 5F7hum8 (antibody, IgG1, V domains shown)
VH: EVQLVQSGAEVKKPGASVKVSCKASGYTFTTFYIHWVRQAPGQGLEWIGMIGPGSGNTYYNEMFKDKATLTVDTSTSTAYMELSSLRSEDTAVYYCARAKSARAAWFAYWGQGTLVTVSS
VL: DIVMTQSPLSLPVTPGEPASISCRSSQSVVQSNGNTYLEWYLQKPGQSPQLLIYKVSNRFSGVPDRFSGSGSGTDFTLKISRVEAEDVGVYYCFQGSHVPPTFGGGTKVEIKR
